Data from US20220040304A1, “A COMPOSITION FOR CANCER CELL DEATH AND ITS USE” (Industry-University Cooperation Foundation Hanyang …, priority 2018, published 2022).

Columns and labels:
MCF-7 cells = experiment: Cell death according to presence of serum and protein treatment time (Co-h); assay type: cell-based, human; settings: MCF-7, protein 10 μM, serum-free media or serum-containing media, Co-h 150 μM
Experimental: MCF-7 cells were seeded at 5×10^5 cells/mL in a 96-well plate (SPL Cell Culture Plate, 96 well (SPL, Cat #30096)), and cultured at 37° C. for 24 hours (overnight). After the culture for 24 hours, the cells were washed with FBS & Phenol red-free media (RPMI, Well Gene., Korea, Cat #LM011-02), and 100 μL of an FBS-free medium or FBS media (RPMI), containing purified protein (final concentration: 10 μM), was added, followed by reaction at 37° C. over time.
After the reaction, the cells were washed with FBS & Phenol red-free media (RPMI), 100 μL of FBS & Phenol red-free media (RPMI) containing a Co-h substrate solution (final concentration: 150 μM) and SYTOX Green (final concentration: 261 nM) staining DNA of dead cells was added, followed by reaction at 37° C. for 30 minutes.
After the reaction, 10 μL of DAPI staining DNA of live cells was added, followed by reaction for 5 minutes. Cell death was confirmed by observing KillerRed, SYTOX Green and DAPI fluorescence using a confocal microscope.

[1] = tested on: patient breast cancer cell lines (primary cells, triple negative); experiment: Cytotoxic effect in patient primary breast cancer cells (triple negative); assay type: cell-based; settings: protein 10 μM
Experimental: Cells were seeded at 5×10^5 cells/mL in 96-well plates (SPL Cell Culture Plate, 96 well (SPL, Cat #30096)), and cultured at 37° C. for 24 hours. After the culture for 24 hours, the cells were washed with primary cell media, and 100 μL of primary cell media containing a purified protein (final concentration: 10 μM) was added, followed by reaction at 37° C. for 12 hours.
After the reaction for 24 hours, the cells were washed with primary cell media, and 100 μL of primary cell media was added. After treatment with a Co-h substrate solution (final concentration: 150 μM) for 5 minutes or irradiation with light at 10 mW/cm^2 for 5 minutes, 50 μL of SYTOX Green (final concentration: 261 nM) staining DNA of dead cells was added, followed by reaction at 37° C. for 30 minutes.
10 μL of DAPI staining DNA of live cells was added, followed by reaction for 5 minutes. Cell death was confirmed by fluorescence imaging of SYTOX Green and DAPI fluorescence according to the type of protein treating cells and the light irradiation time using a confocal microscope. Data on patient breast cancer cell lines used in this example are as follows (Table 5).

B1: RLuc8.6-KR-LP: fusion protein of RLuc8.6, KillerRed and lead peptide WLEAAYQRFL, 71 kDa (protein)
chain: MRGSHHHHHHGMASMTGGQQMGRDLYDDDDKDPMASKVYDPEQRKRMITGPQWWARCKQMNVLDSFINYYDSEKHAENAVIFLHGNATSSYLWRHVVPHIEPVARCIIPDLIGMGKSGKSGNGSYRLLDHYKYLTAWFELLNLPKKIIFVGHDWGSALAFHYAYEHQDRIKAIVHMESVVDVIESWMGWPDIEEELALIKSEEGEKMVLENNFFVETLLPSKIMRKLEPEEFAAYLEPFKEKGEVRRPTLSWPREIPLVKGGKPDVVQIVRNYNAYLRASDDLPKLFIESDPGFFYNAIVEGAKKFPNTEFVKVKGLHFLQEDAPDEMGKYIKSFVERVLKNEQEFGGGMLCCMRRTKQVEKNDEDQKISEGGPALFQSDMTFKIFIDGEVNGQKFTIVADGSSKFPHGDFNVHAVCETGKLPMSWKPICHLIQYGEPFFARYPDGISHFAQECFPEGLSIDRTVRFENDGTMTSHHTYELDDTCVVSRITVNCDGFQPDGPIMRDQLVDILPNETHMFPHGPNAVRQLAFIGFTTADGGLMMGHFDSKMTFNGSRAIEIPGPHFVTIITKQMRDTSDKRDHVCQREVAYAHSVPRITSAIGSDEDGGGWLEAAYQRFL
modifications: pRSET-RLuc8.6-KillerRed-Lead peptide
protein treatment time from which the number of cells stained with SYTOX Green increased (MCF-7 cells): ~4 h | death of Co-h substrate-added cells compared with light irradiation ([1]; Co-h 150 μM for 5 minutes): more effectively shown | cytotoxic effect in patient breast cancer cell lines ([1]; Co-h 150 μM for 5 minutes or light 10 mW/cm^2 for 5 minutes): a cytotoxic effect was exhibited
